According to patent US20080221021A1, “Novel Corticotropin-Releasing Factor Receptor 1 (Crfr1) Agonist” (Max-Planck-Gesellschaft Zur Forderung Der, priority 2004, published 2008):

Key:
Experiment in all cases: competition binding
Settings in all cases: modification not given
[1] = molecular target: T1, mouse CRFR2β (mouse), Q60748
T1 chain: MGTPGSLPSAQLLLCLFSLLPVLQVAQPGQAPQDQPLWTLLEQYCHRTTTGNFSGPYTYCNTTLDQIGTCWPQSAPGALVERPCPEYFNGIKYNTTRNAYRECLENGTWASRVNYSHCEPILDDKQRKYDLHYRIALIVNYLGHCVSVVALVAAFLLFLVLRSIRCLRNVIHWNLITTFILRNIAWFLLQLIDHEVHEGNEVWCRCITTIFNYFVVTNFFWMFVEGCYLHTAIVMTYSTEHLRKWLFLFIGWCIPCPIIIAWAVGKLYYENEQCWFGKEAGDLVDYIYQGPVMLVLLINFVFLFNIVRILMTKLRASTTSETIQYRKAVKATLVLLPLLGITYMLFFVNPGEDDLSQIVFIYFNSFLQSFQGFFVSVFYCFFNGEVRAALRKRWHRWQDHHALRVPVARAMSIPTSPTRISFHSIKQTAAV

[2] = molecular target: T2, rat CRFBP C-terminally fused with a His6 sequence (rat), P24388
T2 chain: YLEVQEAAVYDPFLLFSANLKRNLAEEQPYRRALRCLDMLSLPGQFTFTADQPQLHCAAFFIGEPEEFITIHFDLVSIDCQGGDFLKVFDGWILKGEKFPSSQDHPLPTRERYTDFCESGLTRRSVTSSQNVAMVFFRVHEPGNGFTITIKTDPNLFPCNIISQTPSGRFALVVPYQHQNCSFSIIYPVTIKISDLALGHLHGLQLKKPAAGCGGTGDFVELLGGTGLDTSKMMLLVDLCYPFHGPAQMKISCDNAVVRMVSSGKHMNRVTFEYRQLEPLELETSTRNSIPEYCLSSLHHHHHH

rat CRFR1α (rat), P35353 = molecular target: T3, rat CRFR1α (rat), P35353
T3 chain: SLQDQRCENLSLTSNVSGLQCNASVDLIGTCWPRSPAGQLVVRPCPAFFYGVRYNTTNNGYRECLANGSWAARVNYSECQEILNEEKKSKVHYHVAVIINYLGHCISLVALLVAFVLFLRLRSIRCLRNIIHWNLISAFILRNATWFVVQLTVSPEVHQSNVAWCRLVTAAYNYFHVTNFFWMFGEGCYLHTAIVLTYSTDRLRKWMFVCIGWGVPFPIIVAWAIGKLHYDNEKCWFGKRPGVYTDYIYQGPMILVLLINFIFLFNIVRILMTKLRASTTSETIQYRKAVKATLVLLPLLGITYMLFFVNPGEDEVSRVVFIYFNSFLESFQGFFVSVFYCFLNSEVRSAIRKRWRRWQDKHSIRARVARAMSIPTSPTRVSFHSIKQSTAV

B1: ovine corticotropin-releasing factor (peptide)
chain: SQEPPISLDLTFHLLREVLEMTKADQLAQQAHSNRKLLDIA
IC50 [1]: 160 nM
IC50 [2]: 450 nM
IC50 (rat CRFR1α (rat), P35353): 1.8 nM
